# Laboratory results from publication doi:10.1101/2025.05.22.655486 (bioRxiv, 2025).
# T1: Ectodomain of Arabidopsis thaliana MIK2, TwinStrep- and HA-tagged (Arabidopsis thaliana, UniProt Q8VZG8 44-709)
# T1 sequence (looked up): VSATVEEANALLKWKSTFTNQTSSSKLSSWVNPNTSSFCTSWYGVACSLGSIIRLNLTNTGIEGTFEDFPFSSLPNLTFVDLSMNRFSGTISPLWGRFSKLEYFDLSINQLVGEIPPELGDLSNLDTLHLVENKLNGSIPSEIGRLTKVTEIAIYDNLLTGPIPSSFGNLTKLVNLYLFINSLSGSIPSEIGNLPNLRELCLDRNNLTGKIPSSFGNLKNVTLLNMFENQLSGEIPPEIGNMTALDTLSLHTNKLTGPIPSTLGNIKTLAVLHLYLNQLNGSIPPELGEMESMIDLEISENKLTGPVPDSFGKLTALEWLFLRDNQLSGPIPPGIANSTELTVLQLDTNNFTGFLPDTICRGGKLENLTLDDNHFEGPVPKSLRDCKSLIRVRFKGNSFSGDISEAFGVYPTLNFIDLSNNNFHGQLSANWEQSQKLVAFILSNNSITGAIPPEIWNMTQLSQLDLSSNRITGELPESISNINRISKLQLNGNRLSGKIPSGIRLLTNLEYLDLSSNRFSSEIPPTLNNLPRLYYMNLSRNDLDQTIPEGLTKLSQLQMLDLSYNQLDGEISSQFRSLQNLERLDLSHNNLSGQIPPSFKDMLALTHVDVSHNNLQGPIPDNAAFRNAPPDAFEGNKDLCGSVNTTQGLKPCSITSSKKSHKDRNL
# Assays:
# [1] = molecular target: T1, Ectodomain of Arabidopsis thaliana …; assay: ligand-depletion assay
# [2] = molecular target: Ectodomain of Arabidopsis thaliana FLAGELLIN-SENSING 2, TwinStrep- and HA-tagged (Arabidopsis thaliana, UniProt Q9FL28 24-806); assay: ligand-depletion assay
# Chain of Ectodomain of Arabidopsis thaliana FLAGELLIN-SENSING 2, TwinStrep- and HA-tagged (Q9FL28 24-806): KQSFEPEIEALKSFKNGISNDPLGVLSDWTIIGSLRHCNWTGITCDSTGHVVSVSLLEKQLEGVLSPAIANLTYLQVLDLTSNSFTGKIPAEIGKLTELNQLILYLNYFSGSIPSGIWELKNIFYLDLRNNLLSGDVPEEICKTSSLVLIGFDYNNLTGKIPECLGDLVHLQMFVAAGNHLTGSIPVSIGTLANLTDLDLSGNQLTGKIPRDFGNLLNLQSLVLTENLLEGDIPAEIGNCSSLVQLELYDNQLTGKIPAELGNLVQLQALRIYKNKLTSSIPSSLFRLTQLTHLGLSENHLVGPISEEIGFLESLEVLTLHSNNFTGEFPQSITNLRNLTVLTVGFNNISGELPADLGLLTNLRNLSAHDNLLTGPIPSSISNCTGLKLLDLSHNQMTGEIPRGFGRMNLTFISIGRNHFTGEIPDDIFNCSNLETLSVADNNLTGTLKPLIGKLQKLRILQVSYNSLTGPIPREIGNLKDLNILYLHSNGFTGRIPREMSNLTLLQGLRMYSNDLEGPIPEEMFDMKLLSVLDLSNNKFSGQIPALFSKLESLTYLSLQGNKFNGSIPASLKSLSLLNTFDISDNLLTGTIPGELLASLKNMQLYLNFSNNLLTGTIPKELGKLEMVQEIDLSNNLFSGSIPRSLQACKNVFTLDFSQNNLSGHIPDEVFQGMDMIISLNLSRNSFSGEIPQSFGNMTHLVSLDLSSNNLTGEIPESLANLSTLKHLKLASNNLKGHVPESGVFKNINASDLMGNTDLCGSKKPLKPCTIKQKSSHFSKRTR
Binder,binding result [1],binding result [2]
PVRSSQSSQAGGR [AtSCOOP12 (SERINE-RICH ENDOGENOUS PEPTIDE 12)],binds,–
QRLSTGSRINSAKDDAAGLQIA [flg22 peptide],–,binds
